According to article PMC9728394, “Molecular Docking and Kinetic Studies of the A226N Mutant of Deinococcus geothermalis Amylosucrase with Enhanced Transglucosylation Activity” (Journal of Microbiology and Biotechnology, 2020):

Experiments:
[1] = test system: OC[C@H]1O[C@@](CO)(O[C@H]2O[C@H](CO)[C@@H](O)[C@H](O)[C@H]2O)[C@@H](O)[C@@H]1O; experiment: HPLC of 4-methylumbelliferone glucoside, initial velocities, Lineweaver-Burk fit; type: biochemical, Deinococcus geothermalis; conditions: donor, 0.4-200 mM, 1 mM 4-methylumbelliferone as acceptor, 50 mM Tris-HCl pH 8.0, 45°C
Excerpt: (§1) HPLC of 4-methylumbelliferone glucoside, initial velocities, Lineweaver-Burk fit on DgAS (WT DgAS)

[2] = test system: Cc1cc(=O)oc2cc(O)ccc12; experiment: as above; type: biochemical, Deinococcus geothermalis; conditions: acceptor, 0.1-1.0 mM, 200 mM sucrose as donor, 50 mM Tris-HCl pH 8.0, 45°C
Excerpt: as §1

Substance	Km [1] [mM]	kcat [1] [s⁻¹]	kcat/Km [1] [M⁻¹ s⁻¹]	Km [2] [mM]	kcat [2] [s⁻¹]	kcat/Km [2] [M⁻¹ s⁻¹]
DgAS (WT DgAS) (Deinococcus geothermalis DSM 11300)	36.174 ± 2.037	0.1096	3.03			
DgAS (WT DgAS) (Deinococcus geothermalis DSM 11300; A226N)	44.570 ± 4.625	0.1139	2.55	2.718 ± 0.655	0.28778	106
